According to patent publication US20140170144A1 (CELLMID, published 2014):

Target: T1, recombinant human midkine (MK17) (Homo sapiens, UniProt P21741 23-143)
T1 construct: The signal is left out; It gives a molecular weight of 13.4 kDa; also called human MK; MK17 protein
T1 sequence: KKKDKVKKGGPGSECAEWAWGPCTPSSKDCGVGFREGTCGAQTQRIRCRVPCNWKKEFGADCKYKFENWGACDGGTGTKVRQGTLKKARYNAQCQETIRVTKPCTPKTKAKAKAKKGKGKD
Assay: SPR (Biacore), antibody amine coupled to CM-4 chip, midkine 0-20 nM as analyte
Protocol: Antibody IP-13 (2.85 mg/ml) was diluted to 5.7 μg/ml in Biacore acetate pH 4.5 buffer and amine coupled to of flow cell (FC) #3 of a CM-4 chip. Approximately 750 units were aimed to be immobilized onto Flow cells (FC) #3 of the CM-4 chip; and FC#1 was blocked using EDC/NHS followed by ethanolamine and was used as reference during the study.
Recombinant human midkine was diluted to 15 μM (1 μl of 10 mg/ml in 50 μl of HBS-EP buffer, the calculation was based on molecular weight of 13.4 kDa). Various dilutions of human midkine using HBS-EP buffer were prepared (0, 1, 2, 3, 4, 5, 10 and 20 nM).

Ka: 5e+08 M⁻¹
Kd: 2.02 nM
koff: 0.0028 s⁻¹
kon: 1.4e+06 M⁻¹ s⁻¹
B1: monoclonal antibody IP-13 (antibody, V domains shown)
VH: EVQLQQSGPELVKPGASVKIPCKASGYTFTDYNMGWVKQSHGKSLEWIGDINPNNGGTIYNQKFKGKATLTVDKSSSTAYMELRSLTSEDTAVYYCARWSYSNPYFDYWGQGTTLTVSS
VL: SIVMTQTPNFLLVSAGDRVTITCKASQSVSNDVSWYQQKPGQSPKLLIYYASNLYTGVPDRFTGSGYGTDFTFTISTVQAEDLAVYFCQQDYSSPWTFGGGTKLEIK
notes: also called mAb IP-13
